Laboratory results from US10188742B2, “Bi-specific antibodies and uses thereof” (ACADEMIA SINICA, priority 2014, dated 2019).

Assays:
[1] = tested on: mucin (TAG-72 tumor antigen); experiment: ELISA antigen binding of hE11 BsAbs; conditions: FIG. 6A
Experimental: (§1) The anti-PEG binding specificity of BsAbs was measured by adding graded concentrations of PEG2×TAG72, PEG2×DNS, hCC49 scFv, h6.3Fab×EGFR or h6.3Fab×CD19 in 50 μL 2% skim milk to the mucin, BSA-PEG5000, NH2-PEG3k-NH2 or BSA coated plates at RT for 1 h. The plates were washed with PBS-T (PBS containing 0.05% Tween-20) three times. Rabbit anti-6×His (2 μg/mL) supplemented with HRP-conjugated goat anti-rabbit (2 μg/mL) or HRP-conjugated goat Ig anti human IgG Fab (2 μg/mL) (Jackson ImmunoResearch Laboratories, West Grove, Pa.) in 50 μL dilution buffer were added for 1 h at room temperature. The plates were washed with PBS-T (PBS containing 0.05% Tween-20) three times and with PBS two times. Bound peroxidase activity was measured by adding 150 μL/well ABTS substrate solution (BioLegend, San Diego, Calif.) for 30 min at room temperature. The absorbance (405 nm) of wells was measured in a microplate reader (Molecular Device, Menlo Park, Calif.).
Binding of the BsAbs was detected by ELISA. Microtiter plates were first coated with antigens and then PEG2×TAG72, PEG2×DNS BsAbs or hCC49 (anti-TAG72) single chain antibody was added. After the plates were extensively washed to remove unbound antibodies, the remaining bound antibodies in each well were detected with HRP-conjugated secondary antibody. […] In sum, PEG2×TAG72 anti-PEG (hE11) BsAb of example 1.2 can bind both PEG and tumor antigens.

[2] = tested on: Jurkat T cells (Tag-72 positive); experiment: Cancer cell selectivity of hE11 BsAbs (surface immunofluorescence); format: cell-based, human; conditions: culture medium, FIG. 10
Experimental: PEG2×TAG72 or control PEG2×DNS BsAbs (10 μg/mL) were incubated with A-375 (TAG72−), MCF-7 (TAG72+), Jurkat (TAG72+) or OVCAR-3 (TAG72+) cells at 4° C. for 30 min followed by FITC-labeled goat anti-human immunoglobulin second antibody (2 μg/mL) (Jackson ImmunoResearch Laboratories, West Grove, Pa.) or FITC-labeled 4arm-PEG (2 μg/mL). Tumor-specific targeting of PEGylated compounds was also examined by staining A431 (EGFR^high), and Raji (CD19^high) cell lines with 10 μg/mL of h6.3Fab×EGFR or h6.3Fab×CD19 BsAbs in PBS containing 0.05% BSA (staining buffer) at 4° C. for 30 min. The cells were washed with cold PBS for 3 times. […] After washing with cold PBS, the surface fluorescence of 10^4 viable cells was measured by FACScaliber flow cytometer (Becton Dickinson, Mountain View, Calif., USA) then analyzed with Flowjo (Tree Star Inc., San Carlos, Calif., USA). […]
The binding specificity of monovalent BsAbs with their target proteins was measured by collecting the culture medium of BsAbs producing cells, adding the collected medium to cells that expressed the target protein, then determining the binding by ELSA. After washing the cells, the bound BsAbs were detected by FITC-labeled goat anti-human immunoglobulin second antibody. […]

[3] = biological target: BSA (Bos taurus, UniProt P02769); experiment: ELISA antigen binding of BsAbs, control protein
BSA, sequence (P02769 25-607): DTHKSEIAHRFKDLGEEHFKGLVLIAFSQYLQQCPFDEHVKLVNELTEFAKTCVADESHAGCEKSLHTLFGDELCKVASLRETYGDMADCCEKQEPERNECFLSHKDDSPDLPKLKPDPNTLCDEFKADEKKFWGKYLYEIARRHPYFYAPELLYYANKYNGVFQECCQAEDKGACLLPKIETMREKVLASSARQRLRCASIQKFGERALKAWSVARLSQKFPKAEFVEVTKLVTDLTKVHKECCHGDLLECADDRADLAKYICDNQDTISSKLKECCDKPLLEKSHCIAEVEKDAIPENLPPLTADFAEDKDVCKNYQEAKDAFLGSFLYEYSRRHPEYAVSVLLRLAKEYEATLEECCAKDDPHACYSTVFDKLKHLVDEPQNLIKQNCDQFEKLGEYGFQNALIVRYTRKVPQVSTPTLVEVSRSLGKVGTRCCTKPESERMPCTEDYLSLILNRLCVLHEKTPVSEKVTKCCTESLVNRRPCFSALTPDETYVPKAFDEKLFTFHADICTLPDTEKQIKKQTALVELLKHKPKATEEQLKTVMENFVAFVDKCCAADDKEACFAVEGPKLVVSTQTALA
Experimental: as §1
Binding of the BsAbs was detected by ELISA. Microtiter plates were first coated with antigens and then PEG2×TAG72, PEG2×DNS BsAbs or hCC49 (anti-TAG72) single chain antibody was added. After the plates were extensively washed to remove unbound antibodies, the remaining bound antibodies in each well were detected with HRP-conjugated secondary antibody. […] In sum, PEG2×TAG72 anti-PEG (hE11) BsAb of example 1.2 can bind both PEG and tumor antigens. […]

[4] = tested on: Raji (CD19+) cells; experiment: Cytotoxicity assay of Doxisome with h6.3 BsAbs (3H-thymidine); format: cell-based; conditions: compared with Doxisome alone
Experimental: A431 (EGFR^high) and Raji (CD19^high) cells (5000 cells/well) were seeded in 96-well plates overnight. Fifteen microgram per mL of h6.3Fab×EGFR or h6.3Fab×CD19 BsAbs were added to the cells for 30 min at 37° C. and followed by graded concentrations of free doxorubicin or PEGylated liposomal doxorubicin (Doxisome®, Taiwan Liposome Company Ltd., Taipei, Taiwan) was added to the cells in triplicate at 37° C. for 4 h. The cells were subsequently washed once and incubated for an additional 48 h in fresh culture medium and then pulsed for 16 h with ^3H-thymidine (1 μCi/well). Results are expressed as percent inhibition of ^3H-thymidine incorporation into cellular DNA in comparison to untreated cells.
Next, the ability of whether h6.3Fab×CD19 and h6.3Fab×EGFR BsAbs could increase the cytotoxicity of the drug-loaded nanoparticles (NPs) to antigen-positive cancer cells was investigated. Raji (CD19+) and A431 (EGFR+) cells were incubated with h6.3Fab×CD19 and h6.3Fab×EGFR, followed by the addition of graded concentrations of Doxisome (i.e., PEGylated liposomal doxorubicin).

[5] = tested on: A431 (EGFR+) tumor cells; experiment: Confocal live cell imaging of PEG-Qdot655 internalization; format: cell-based, human; conditions: 10 μg/mL BsAb, 16 nM PEG-Qdot655
Experimental: The coverslips (30 mm) in POC chambers were coated with 10 μg/mL poly-L-lysine in PBS for 30 min at room temperature. The coverslips were washed twice with PBS and then 5×10^4 cells/chamber of A431 (EGFR+) tumor cells were seeded on the coverslips. A431 cells were incubated with 10 μg/mL of h6.3Fab×EGFR or h6.3Fab×CD19 BsAbs at 37° C. for 30 min containing 1 μg/mL of Hoechst 33342 and 100 nM of LysoTracker® Red DND-99 (Invitrogen Life Technologies Corporation, NY, USA). The cells were washed with culture medium for 2 times. Cell imaging was recorded with an Axiovert 200M Confocal Microscope (Carl Ziess Inc., Thornwood, N.Y.) after adding 16 nM of PEG-Qdot655 solution (Invitrogen Life Technologies Corporation, NY, USA).
To verify whether BsAb-targeted substance could be internalized by antigen-positive cancer cells, live cell imaging was performed by staining cells with lysosome tracker and BsAbs, followed by the addition and incubation of PEG-Qdot655.

[6] = tested on: Raji cells (CD19+); experiment: Flow cytometry: BsAb-directed PEG-liposome Texas Red / PEG-Qdot655 on cells; format: cell-based; conditions: PEG-liposome Texas Red and PEG-Qdot655, 10 μg/mL BsAb
Experimental: PEG2×TAG72 or control PEG2×DNS BsAbs (10 μg/mL) were incubated with A-375 (TAG72−), MCF-7 (TAG72+), Jurkat (TAG72+) or OVCAR-3 (TAG72+) cells at 4° C. for 30 min followed by FITC-labeled goat anti-human immunoglobulin second antibody (2 μg/mL) (Jackson ImmunoResearch Laboratories, West Grove, Pa.) or FITC-labeled 4arm-PEG (2 μg/mL). Tumor-specific targeting of PEGylated compounds was also examined by staining A431 (EGFR^high), and Raji (CD19^high) cell lines with 10 μg/mL of h6.3Fab×EGFR or h6.3Fab×CD19 BsAbs in PBS containing 0.05% BSA (staining buffer) at 4° C. for 30 min. The cells were washed with cold PBS for 3 times. PEG-Qdot655 (8 nM) (Invitrogen, Grand Island, N.Y.) or PEG-liposomal Texas-Red (100 nm size, 50 μM, lipid conc.) (FormuMax Scientific, Palo Alto, Calif.) in staining buffer was added to cells for 30 min at 4° C. Raji cells (CD19+) or SKBR3 cells (HER2+) were incubated with 10 μg/ml h15-2b-knob/BU12-hole, h15-2b-knob/anti-Her2-hole, h6-3-knob/BU12-hole or h6-3-knob/anti-Her2-hole BsAbs, washed and incubated with 0.25 μg/ml FITC-labeled goat anti-human IgG or 10 nM methoxy-PEG Qdot 655 at 4° C. for 30 min. After washing with cold PBS, the surface fluorescence of 10^4 viable cells was measured by FACScaliber flow cytometer (Becton Dickinson, Mountain View, Calif., USA) then analyzed with Flowjo (Tree Star Inc., San Carlos, Calif., USA). […]

[7] = ELISA PEG binding of h6.3 BsAbs; conditions: FIG. 14A
Experimental: as §1, with “The anti-PEG binding specificity of BsAbs was measured by adding graded concentrations of PEG2×TAG72, PEG2×DNS, hCC49 scFv, h6.3Fab×EGFR or h6.3Fab×CD19 in 50 μL 2% skim milk to the mucin, BSA-PEG5000, NH2-PEG3k-NH2 or BSA coated plates at RT for 1 h.” left out
The PEG-binding kinetics of h6-3Fab×EGFR and h6.3Fab×CD19 BsAbs were verified by Microscale Thermophoresis (MST) (FIGS. 14D and 14E).

B1: hcc49 scFv: humanized single-chain antibody fragment against TAG-72 antigen (protein)
scFv: QVQLVQSGAEVKKPGASVKVSCKASGYTFTDHAIHWVRQAPGQCLEWMGYFSPGNDDFKYSQKFQGRVTITADKSASTAYMELSSLRSEDTAVYYCARSWIMQYWGQGTLVTVSSGGGGSGGGGSGGGGSDIVMTQSPDSLAVSLGERATINCKSSQSVLYSSNNKNYLAWYQQKPGQPPKLLIYWASTRESGVPDRFSGSGSGTDFTLTISSLQAEDVAVYYCQQYYSYPLTFGCGTKVEIK
- binding to mucin [1]: bound to mucin

B2: PEG×TAG72: monovalent BsAb: hE11 anti-PEG Fab fused to anti-TAG72 scFv (example 2.1) (protein)
light: DVVMTQSPLSLPVTLGQPASISCRSSKSIVHSNGNTYLEWFQQRPGQSPRRLIYKVSKRMSGVPDRFSGSGSGTDFTLKISRVEAEDVGVYYCSQGSHVPPTFGGGTKVEIKRTVAAPSVFIFPPSDEQLKSGTASVVCLLNNFYPREAKVQWKVDNALQSGNSQESVTEQDSKDSTYSLSSTLTLSKADYEKHKLYACEVTHQGLSSPVTKSFNRGEC
heavy: QVQLVQSGAEVKKPGASVKVSCKASGYTFTTYTMNWVRQAPGQGLEWMGYIIPSSGYVDYNQKFKGRVTMTRDTSTSTVYMELSSLRSEDTAVYYCVRSLDGYFWFAYWGQGTLVTVSSASTKGPSVFPLAPSSKSTSGGTAALGCLVKDYFPEPVTVSWNSGALTSGVHTFPAVLQSSGLYSLSSVVTVPSSSLGTQTYICNVNHKPSNTKVDKRVVDLVTVSSASTGGGSGQLGGGGSQVQLVQSGAEVKKPGASVKVSCKASGYTFTDHAIHWVRQAPGQCLEWMGYFSPGNDDFKYSQKFQGRVTITADKSASTAYMELSSLRSEDTAVYYCARSWIMQYWGQGTLVTVSSGGGGSGGGGSGGGGSDIVMTQSPDSLAVSLGERATINCKSSQSVLYSSNNKNYLAWYQQKPGQPPKLLIYWASTRESGVPDRFSGSGSGTDFTLTISSLQAEDVAVYYCQQYYSYPLTFGCGTKVEIKTRHHHHHH
- binding of monovalent BsAb to Jurkat T cells [2]: bound to Jurkat T cells

B3: h6.3Fab×CD19: monovalent humanized anti-PEG h6.3 Fab fused to hBU12 anti-CD19 dsFv; SEQ ID NO 9, 10, 4, 11, 6 (protein)
chain 1: DIVMTQSPDSLAVSLGERATINCKSSQSVLYSSNQMNYLAWYQQKPGQPPKLLIYWASTRESGVPDRFSGSGSGTDFTLTISSLQAEDVAVYYCLQYLSSWTFGGGTKLEIKTYSLSSTLTLSKADYEKHKLYACEVTHQGLSSPVTKSFNRGEC
chain 2: QVQLVQSGSELKKPGASVKVSCKASGYTFKNYGMNWVRQAPGQGLEWMGWINTYTGQPIYANDFKGRFVFSLDTSVSTAYLQISSLKAEDTAVYYCARDWGPYWGQGTLVTVSSASTKGPSVFPLAPSSKSTSGGTAALGCLVKDYFPEPVTVSWNSGALTSGVHTFPAVLQSSGLYSLSSVVTVPSSSLGTQTYICNVNHKPSNTKVDKRVEPKSCDK
chain 3: VDLVTVSSASTGGGSGQLGGGGS
chain 4: QVQLQESGPGLVKPSQTLSLTCTVSGGSISTSGMGVGWIRQHPGKCLEWIGHIWWDDDKRYNPALKSRVTISVDTSKNQFSLKLSSVTAADTAVYYCARMELWSYYFDYWGQGTLVTVSSGGGGSGGGGSGGGGSEIVLTQSPATLSLSPGERATLSCSASSSVSYMHWYQQKPGQAPRLLIYDTSKLASGIPARFSGSGSGTDFTLTISSLEPEDVAVYYCFQGSVYPFTFGCGTKLEIKR
chain 5: TRHHHHHH
modifications: Humanized 6.3 VL-Ck; Humanized 6.3 VH-CH1; Peptide Linker; hBU12 dsFv; 6xHis Tag
- binding to BSA [3]: not to the control BSA protein
- effect on cytotoxicity of Doxisome to Raji cells [4]: enhanced cytotoxicity of Doxisome
- uptake of PEG-Qdot655 into A431 cells (endocytic vesicles) [5]: failed to produce PEG-Qdot655 signals
- directing PEGylated substance to Raji cells [6]: capable of directing PEGylated substance to Raji cells
- binding to NH2-PEG10,000-NH2 [7]: bound to the NH2-PEG10,000-NH2
